{"source": "patent US20160153985A1", "key": {"[1]": {"biological_target": "pure human iC3b (Complement Technology, A115) (human) (UniProt P01024)", "sequence (P01024 23-667 limits assumed, chain 1 of 3)": "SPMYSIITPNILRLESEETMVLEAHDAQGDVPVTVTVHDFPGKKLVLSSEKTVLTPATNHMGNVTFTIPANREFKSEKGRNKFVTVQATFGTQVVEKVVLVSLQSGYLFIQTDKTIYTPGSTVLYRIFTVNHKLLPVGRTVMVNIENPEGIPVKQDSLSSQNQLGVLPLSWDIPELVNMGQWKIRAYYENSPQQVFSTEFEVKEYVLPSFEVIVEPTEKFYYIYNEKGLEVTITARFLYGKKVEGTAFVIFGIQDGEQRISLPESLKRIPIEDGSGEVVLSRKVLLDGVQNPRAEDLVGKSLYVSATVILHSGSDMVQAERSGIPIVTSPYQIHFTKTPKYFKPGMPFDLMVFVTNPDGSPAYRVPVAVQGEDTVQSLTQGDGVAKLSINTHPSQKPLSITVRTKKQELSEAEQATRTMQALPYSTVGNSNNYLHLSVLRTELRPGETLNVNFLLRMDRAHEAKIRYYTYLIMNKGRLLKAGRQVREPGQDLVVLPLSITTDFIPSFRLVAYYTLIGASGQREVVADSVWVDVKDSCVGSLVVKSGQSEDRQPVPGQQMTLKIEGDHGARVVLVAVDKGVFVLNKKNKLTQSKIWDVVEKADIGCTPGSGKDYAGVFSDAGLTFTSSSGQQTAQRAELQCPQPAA", "sequence (P01024 749-1303 limits assumed, chain 2 of 3)": "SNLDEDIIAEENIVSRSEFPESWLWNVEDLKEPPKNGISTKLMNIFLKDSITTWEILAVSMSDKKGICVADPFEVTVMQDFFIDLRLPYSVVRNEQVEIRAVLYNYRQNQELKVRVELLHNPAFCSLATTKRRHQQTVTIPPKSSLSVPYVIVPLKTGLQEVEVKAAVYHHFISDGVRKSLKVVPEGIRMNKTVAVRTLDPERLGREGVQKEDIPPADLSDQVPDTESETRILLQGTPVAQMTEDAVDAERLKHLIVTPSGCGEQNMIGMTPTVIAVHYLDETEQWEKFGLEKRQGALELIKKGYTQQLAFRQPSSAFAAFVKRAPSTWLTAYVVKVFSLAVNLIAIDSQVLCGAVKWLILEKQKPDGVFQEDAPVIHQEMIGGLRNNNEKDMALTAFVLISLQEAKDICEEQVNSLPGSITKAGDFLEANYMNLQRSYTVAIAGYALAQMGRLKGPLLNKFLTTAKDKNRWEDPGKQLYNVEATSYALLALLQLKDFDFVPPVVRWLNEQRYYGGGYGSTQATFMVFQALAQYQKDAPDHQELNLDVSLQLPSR", "sequence (P01024 1321-1663 limits assumed, chain 3 of 3)": "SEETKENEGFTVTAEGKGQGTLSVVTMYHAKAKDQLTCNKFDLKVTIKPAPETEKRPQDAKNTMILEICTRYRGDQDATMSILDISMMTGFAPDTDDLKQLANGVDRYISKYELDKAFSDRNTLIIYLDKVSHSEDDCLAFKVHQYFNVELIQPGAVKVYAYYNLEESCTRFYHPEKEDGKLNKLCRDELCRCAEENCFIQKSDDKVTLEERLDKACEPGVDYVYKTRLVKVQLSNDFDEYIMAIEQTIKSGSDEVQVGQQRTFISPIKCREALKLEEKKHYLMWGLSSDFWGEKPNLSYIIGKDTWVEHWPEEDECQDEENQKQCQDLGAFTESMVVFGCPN", "experiment": "sandwich ELISA, capture A209 (Example 5), goat anti-C3-HRP; TABLE 6 well C7, 30% vitreous"}, "[2]": {"biological_target": "pure human iC3b (Complement Technology, A115) (human) (UniProt P01024)", "experiment": "sandwich ELISA, capture A209 (Example 5), goat anti-C3-HRP; TABLE 6 well E8, 20% vitreous"}, "[3]": {"biological_target": "pure human iC3b (Complement Technology, A115) (human) (UniProt P01024)", "experiment": "sandwich ELISA, capture A209 (Example 5), goat anti-C3-HRP; TABLE 7, iC3b in blocker"}, "[4]": {"biological_target": "pure human iC3b (Complement Technology, A115) (human) (UniProt P01024)", "experiment": "sandwich ELISA, capture A209 (Example 5), goat anti-C3-HRP; TABLE 6 well E6, 20% vitreous"}, "[5]": {"biological_target": "pure human iC3b (Complement Technology, A115) (human) (UniProt P01024)", "experiment": "sandwich ELISA, capture A209 (Example 5), goat anti-C3-HRP; TABLE 6 well G2, 10% vitreous"}, "[6]": {"biological_target": "pure human iC3b (Complement Technology, A115) (human) (UniProt P01024)", "experiment": "sandwich ELISA, capture A209 (Example 5), goat anti-C3-HRP; TABLE 6 well H2, 10% vitreous"}, "[7]": {"biological_target": "pure human iC3b (Complement Technology, A115) (human) (UniProt P01024)", "experiment": "sandwich ELISA, capture A209 (Example 5), goat anti-C3-HRP; TABLE 6 well C3, 30% vitreous"}, "[8]": {"biological_target": "pure human iC3b (Complement Technology, A115) (human) (UniProt P01024)", "experiment": "sandwich ELISA, capture A209 (Example 5), goat anti-C3-HRP; TABLE 6 well A3, blocker"}, "[9]": {"biological_target": "pure human iC3b (Complement Technology, A115) (human) (UniProt P01024)", "experiment": "sandwich ELISA, capture A209 (Example 5), goat anti-C3-HRP; TABLE 6 well E7, 20% vitreous"}, "[10]": {"biological_target": "pure human iC3b (Complement Technology, A115) (human) (UniProt P01024)", "experiment": "sandwich ELISA, capture A209 (Example 5), goat anti-C3-HRP; TABLE 6 well C4, 30% vitreous"}, "[11]": {"biological_target": "pure human iC3b (Complement Technology, A115) (human) (UniProt P01024)", "experiment": "sandwich ELISA, capture A209 (Example 5), goat anti-C3-HRP; TABLE 6 well F8, 20% vitreous"}, "[12]": {"biological_target": "pure human iC3b (Complement Technology, A115) (human) (UniProt P01024)", "experiment": "sandwich ELISA, capture A209 (Example 5), goat anti-C3-HRP; TABLE 6 well B8, blocker"}, "[13]": {"biological_target": "pure human iC3b (Complement Technology, A115) (human) (UniProt P01024)", "experiment": "sandwich ELISA, capture A209 (Example 5), goat anti-C3-HRP; TABLE 6 well H7, 10% vitreous"}, "[14]": {"biological_target": "pure human iC3b (Complement Technology, A115) (human) (UniProt P01024)", "experiment": "sandwich ELISA, capture A209 (Example 5), goat anti-C3-HRP; TABLE 6 well F6, 20% vitreous"}, "[15]": {"biological_target": "pure human iC3b (Complement Technology, A115) (human) (UniProt P01024)", "experiment": "sandwich ELISA, capture A209 (Example 5), goat anti-C3-HRP; TABLE 6 well G6, 10% vitreous"}, "[16]": {"biological_target": "pure human iC3b (Complement Technology, A115) (human) (UniProt P01024)", "experiment": "sandwich ELISA of Example 5, iC3b concentration labeled 0.0125 in 20% human vitreous, duplicate 2"}, "[17]": {"biological_target": "pure human iC3b (Complement Technology, A115) (human) (UniProt P01024)", "experiment": "sandwich ELISA, capture A209 (Example 5), goat anti-C3-HRP; TABLE 6 well A4, blocker"}, "[18]": {"biological_target": "pure human iC3b (Complement Technology, A115) (human) (UniProt P01024)", "experiment": "sandwich ELISA, capture A209 (Example 5), goat anti-C3-HRP; TABLE 6 well C6, 30% vitreous"}, "[19]": {"biological_target": "pure human iC3b (Complement Technology, A115) (human) (UniProt P01024)", "experiment": "sandwich ELISA, capture A209 (Example 5), goat anti-C3-HRP; TABLE 6 well B7, blocker"}, "[20]": {"biological_target": "pure human iC3b (Complement Technology, A115) (human) (UniProt P01024)", "experiment": "sandwich ELISA, capture A209 (Example 5), goat anti-C3-HRP; TABLE 6 well H4, 10% vitreous"}, "[21]": {"biological_target": "pure human iC3b (Complement Technology, A115) (human) (UniProt P01024)", "experiment": "sandwich ELISA, capture A209 (Example 5), goat anti-C3-HRP; TABLE 6 well G3, 10% vitreous"}, "[22]": {"biological_target": "pure human iC3b (Complement Technology, A115) (human) (UniProt P01024)", "experiment": "sandwich ELISA, capture A209 (Example 5), goat anti-C3-HRP; TABLE 6 well A6, blocker"}, "[23]": {"biological_target": "pure human iC3b (Complement Technology, A115) (human) (UniProt P01024)", "experiment": "sandwich ELISA, capture A209 (Example 5), goat anti-C3-HRP; TABLE 6 well G4, 10% vitreous"}, "[24]": {"biological_target": "pure human iC3b (Complement Technology, A115) (human) (UniProt P01024)", "experiment": "sandwich ELISA, capture A209 (Example 5), goat anti-C3-HRP; TABLE 6 well G9, 10% vitreous"}, "[25]": {"biological_target": "pure human iC3b (Complement Technology, A115) (human) (UniProt P01024)", "experiment": "sandwich ELISA, capture A209 (Example 5), goat anti-C3-HRP; TABLE 6 well B3, blocker"}}}
{"substance": "mouse anti-iC3b antibody A209 (Quidel)", "values": [{"measurement": "raw A450 at iC3b 0.031 ug/ml", "setting": "[1]", "value": 0.355, "unit": "OD"}, {"measurement": "raw A450 at iC3b 0.016 ug/ml", "setting": "[2]", "value": 0.321, "unit": "OD"}, {"measurement": "A450 minus matrix average at iC3b 0.016 ug/ml", "setting": "[3]", "value": 0.011, "unit": "OD"}, {"measurement": "A450 minus matrix average at iC3b 0.031 ug/ml", "setting": "[3]", "value": 0.021, "unit": "OD"}, {"measurement": "A450 minus matrix average at iC3b 0.063 ug/ml", "setting": "[3]", "value": 0.037, "unit": "OD"}, {"measurement": "A450 minus matrix average at iC3b 0.125 ug/ml", "setting": "[3]", "value": 0.073, "unit": "OD"}, {"measurement": "A450 minus matrix average at iC3b 0.25 ug/ml", "setting": "[3]", "value": 0.138, "unit": "OD"}, {"measurement": "A450 minus matrix average at iC3b 0.5 ug/ml", "setting": "[3]", "value": 0.232, "unit": "OD"}, {"measurement": "A450 minus matrix average at iC3b 1 ug/ml", "setting": "[3]", "value": 0.328, "unit": "OD"}, {"measurement": "raw A450 at iC3b 0.063 ug/ml", "setting": "[4]", "value": 0.353, "unit": "OD"}, {"measurement": "raw A450 at iC3b 1 ug/ml", "setting": "[5]", "value": 0.508, "unit": "OD"}, {"measurement": "raw A450 at iC3b 1 ug/ml", "setting": "[6]", "value": 0.42, "unit": "OD"}, {"measurement": "raw A450 at iC3b 0.5 ug/ml", "setting": "[7]", "value": 0.406, "unit": "OD"}, {"measurement": "raw A450 at iC3b 0.5 ug/ml", "setting": "[8]", "value": 0.258, "unit": "OD"}, {"measurement": "raw A450 at iC3b 0.031 ug/ml", "setting": "[9]", "value": 0.339, "unit": "OD"}, {"measurement": "raw A450 at iC3b 0.25 ug/ml", "setting": "[10]", "value": 0.391, "unit": "OD"}, {"measurement": "raw A450 at iC3b 0.016 ug/ml", "setting": "[11]", "value": 0.318, "unit": "OD"}, {"measurement": "raw A450 at iC3b 0.016 ug/ml", "setting": "[12]", "value": 0.038, "unit": "OD"}, {"measurement": "raw A450 at iC3b 0.031 ug/ml", "setting": "[13]", "value": 0.231, "unit": "OD"}, {"measurement": "raw A450 at iC3b 0.063 ug/ml", "setting": "[14]", "value": 0.355, "unit": "OD"}, {"measurement": "raw A450 at iC3b 0.063 ug/ml", "setting": "[15]", "value": 0.254, "unit": "OD"}, {"measurement": "absorbance A450, raw", "setting": "[16]", "value": 0.384, "unit": "A450"}, {"measurement": "raw A450 at iC3b 0.25 ug/ml", "setting": "[17]", "value": 0.169, "unit": "OD"}, {"measurement": "raw A450 at iC3b 0.063 ug/ml", "setting": "[18]", "value": 0.375, "unit": "OD"}, {"measurement": "raw A450 at iC3b 0.031 ug/ml", "setting": "[19]", "value": 0.048, "unit": "OD"}, {"measurement": "raw A450 at iC3b 0.25 ug/ml", "setting": "[20]", "value": 0.283, "unit": "OD"}, {"measurement": "raw A450 at iC3b 0.5 ug/ml", "setting": "[21]", "value": 0.385, "unit": "OD"}, {"measurement": "raw A450 at iC3b 0.063 ug/ml", "setting": "[22]", "value": 0.064, "unit": "OD"}, {"measurement": "raw A450 at iC3b 0.25 ug/ml", "setting": "[23]", "value": 0.28, "unit": "OD"}, {"measurement": "raw A450 at iC3b 0.0078 ug/ml", "setting": "[24]", "value": 0.229, "unit": "OD"}, {"measurement": "raw A450 at iC3b 0.5 ug/ml", "setting": "[25]", "value": 0.265, "unit": "OD"}]}
